{"source": "patent US20150291685A1", "about": "(AstraZeneca / MedImmune, published 2015)", "binders": {"B1": {"name": "mAb 23D6 (antibody, V domains shown)", "VH": "QVQLVESGGGVVQPGRSLRLSCAASVFTFSSYGMHWVRQAPGKGLEWVALIWFDGSNEYYADSVKGRFTISRDNSKNTLYLQMNSLRAEDTAVYYCARDRGGGYYYYGMDVWGQGTTVTVSS", "VL": "DIQMTQSPSSLSASVGDRVTITCRASQGIRNDLGWYQQKPGKAPKRLIYAASSLQSGVPSRFSGSGSGTEFTLTISSLQPEDFATYYCLQHNSYPYTFGQGTKLEIK", "notes": "also called anti-ClfA antibody 23D6"}, "B2": {"name": "anti-ClfA mAb 11H10 (antibody, V domains shown)", "VH": "EVQLLESGGGLVQPGGSLRLSCAASGFTFSSFAMSWVRQAPGKGLEWVSAISGSGGNTYYADSVKGRFTISRDNSKNTLYLQMNSLRAEDTAVYYCAKIAFDIWGQGTMVTVSS", "VL": "B1 VL with A50V, Y96F, Q100P, L104V, E105D"}, "B3": {"name": "mAb 1C1 (antibody, V domains shown)", "VH": "EVQLLESGGGLVQPGGSLRLSCAASGFTFSRYFMGWVRQAPGKGLEWVSSIYSSGGYTSYADSVKGRFTISRDNSKNTLYLQMNSLRAEDTAVYYCARRWRDGTFDYWGQGTLVTVSS", "VL": "DIQMTQSPSSLSASIGDRVTISCRASQSVREYLNWYQQKPGKAPKLLIFAASSLQSGVPSRFSGSGSGTDFTLTISSLQPEDFATYYCQQSYSTRFTFGPGTKVDIK", "notes": "also called antibody 1C1"}, "B4": {"name": "mAb 2F4 (antibody, V domains shown)", "VH": "EVQLLESGGGLVQPGGSLRLSCAASGFTFSPYMMQWVRQAPGKGLEWVSSIWPSGGKTYYADSVKGRFTISRDNSKNTLYLQMNSLRAEDTAVYYCARVRRGGATDYWGQGTLVTVSS", "VL": "DIQMTQSPATLSVSPGERATLSCRASQSVSSNLGWYQQKPGQAPRLLIYGASTRATGIPTRFSGSGSGTEFTLTISSLQSEDFATYYCQQYQNWPLLTFGGGTKVEIK", "notes": "also called antibody 2F4; anti-IsdH mAb 2F4"}}, "key": {"[1]": {"target": "T1, S. aureus clumping factor protein ClfA (Staphylococcus aureus, UniProt Q2G015 221-559, limits assumed)", "T1 sequence (looked up)": "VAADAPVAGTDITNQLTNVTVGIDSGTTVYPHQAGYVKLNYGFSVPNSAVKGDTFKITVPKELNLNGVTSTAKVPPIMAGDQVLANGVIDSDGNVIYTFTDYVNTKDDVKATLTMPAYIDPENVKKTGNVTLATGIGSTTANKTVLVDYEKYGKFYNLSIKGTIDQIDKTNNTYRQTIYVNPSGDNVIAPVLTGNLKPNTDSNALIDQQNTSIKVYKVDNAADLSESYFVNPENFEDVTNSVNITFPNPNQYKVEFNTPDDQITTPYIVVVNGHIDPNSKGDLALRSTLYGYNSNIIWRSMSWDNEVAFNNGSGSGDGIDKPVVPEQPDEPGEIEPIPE", "test": "inhibition of ClfA binding to immobilized fibrinogen; the curve reaches about 60-65 % inhibition [table]"}, "[2]": {"target": "T1, S. aureus clumping factor protein ClfA", "test": "inhibition of ClfA binding to immobilized fibrinogen; the curve reaches about 55-62 % inhibition [table]"}, "Neat-1": {"target": "T2, Neat-1 (Staphylococcus aureus)", "T2 construct": "domain of IsdH; also called subunit Neat-1 on IsdH; NEAT1 motif of IsdH", "test": "competition ELISA: haptoglobin (Hp) binding to Neat-1 of IsdH with rising antibody concentration"}, "[3]": {"target": "T3, S. aureus Iron regulated surface determinant H (IsdH) (Staphylococcus aureus, UniProt Q2FXJ2 41-864, limits assumed)", "T3 sequence (looked up)": "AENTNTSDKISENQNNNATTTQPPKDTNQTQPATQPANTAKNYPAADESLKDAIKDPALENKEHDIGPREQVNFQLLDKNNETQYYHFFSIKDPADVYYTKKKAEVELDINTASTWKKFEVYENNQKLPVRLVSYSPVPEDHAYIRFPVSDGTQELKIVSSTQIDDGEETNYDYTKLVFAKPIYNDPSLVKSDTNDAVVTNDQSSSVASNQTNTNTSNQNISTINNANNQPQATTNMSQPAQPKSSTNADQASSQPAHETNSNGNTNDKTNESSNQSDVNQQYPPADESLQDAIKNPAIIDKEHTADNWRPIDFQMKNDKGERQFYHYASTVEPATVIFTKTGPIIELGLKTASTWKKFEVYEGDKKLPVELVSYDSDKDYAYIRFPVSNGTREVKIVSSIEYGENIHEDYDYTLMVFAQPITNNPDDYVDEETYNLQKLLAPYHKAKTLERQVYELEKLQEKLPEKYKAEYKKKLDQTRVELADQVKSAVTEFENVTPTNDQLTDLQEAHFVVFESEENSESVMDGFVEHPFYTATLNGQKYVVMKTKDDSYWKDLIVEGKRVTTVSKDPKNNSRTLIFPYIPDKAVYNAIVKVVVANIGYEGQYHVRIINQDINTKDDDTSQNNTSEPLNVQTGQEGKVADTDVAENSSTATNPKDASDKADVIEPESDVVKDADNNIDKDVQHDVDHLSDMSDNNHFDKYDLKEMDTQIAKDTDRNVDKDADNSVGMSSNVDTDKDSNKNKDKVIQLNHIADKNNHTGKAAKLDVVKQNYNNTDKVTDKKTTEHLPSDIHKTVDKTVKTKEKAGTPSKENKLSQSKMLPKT", "test": "hu_IgGFc capture assay, mean of three experiments"}, "Neat-2 subunit of IsdH [4]": {"target": "T4, Neat-2 subunit of IsdH (Staphylococcus aureus, UniProt Q2FXJ2 345-471)", "T4 construct": "domain: Neat-2; also called subunit Neat-2", "T4 sequence (looked up)": "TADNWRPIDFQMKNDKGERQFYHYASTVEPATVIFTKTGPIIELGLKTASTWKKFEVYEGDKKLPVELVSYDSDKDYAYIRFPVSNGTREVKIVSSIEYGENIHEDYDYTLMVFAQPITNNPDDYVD", "test": "hu_IgGFc capture assay, mean of three experiments"}, "Neat-2 subunit of IsdH [5]": {"target": "T4, Neat-2 subunit of IsdH", "test": "competition ELISA: haptoglobin (Hp) binding to Neat-2 of IsdH with rising antibody concentration"}}, "note": "Residue numbers refer to the chain shown, from its start."}
{"binder": "B1", "values": [{"measurement": "IC50", "setting": "[1]", "value": 1.92, "unit": "µg/mL"}]}
{"binder": "B2", "values": [{"measurement": "IC50", "setting": "[2]", "value": 0.871, "unit": "µg/mL"}]}
{"binder": "B3", "values": [{"measurement": "IC50 (read off the curve)", "setting": "Neat-1", "value": "~3", "unit": "µg/mL"}]}
{"binder": "B4", "values": [{"measurement": "Kd", "setting": "[3]", "value": 3.66, "unit": "nM"}, {"measurement": "Kd", "setting": "Neat-2 subunit of IsdH [4]", "value": 2.57, "unit": "nM"}, {"measurement": "IC50 (read off the curve)", "setting": "Neat-2 subunit of IsdH [5]", "value": "~1", "unit": "µg/mL"}]}
